Laboratory results from patent publication US20160324958A1 (ALPHA O PEPTIDES, published 2016).

B1: LONG-D2-D1-ori self-assembling protein nanoparticle (other)
chain: MGHHHHHHASWRWDGGLVPRGSWQTWNARWDQWSNDWNAWRSDWQAWRDDWARWRALWMGGRLLLRLEELERRLEELERRLEELERFVAAWTLRVRALERRLEELERRIEEIARGSGSSARLSDLEANNAVKGESKITVNGAEYTANATGDKITLAGKTMFIDKTASGVSTLINEDAAAAKKSTANPLASIDSALSKVDAVRSSLGAIQNRFDSAIGSRNANDGISIAQTTEGALNEINNNLQRVRELSVQATNGTNSDSDLKSIQDEIQQRLEEIDRVSNQTQFNGVKVLSQDNQMKIQVGANDGETITIDLQKIDVKSLGLDGFNVNGPKEATVGDLKSSFKNVTGYDTYAAGADKYRVDINSGAV
B2: T81c-WRW-8RRVRA-D0-D1 : T81c-WRW-8RRVRA-T1BT* co-assembled nanoparticle (12:48) (other)
chain 1: MGHHHHHHASWRWDGGLVPRGSWQTWNARWDQWSNDWNAWRSDWQAWRDDWARWRALWMGGRLLLRLEELERRLEELERRLEELERFVAAWTLRVRALERRLEELERRIEEIARGMAQVINTNSLSLLTQNNLNKSQSALGTAIERLSSGLRINSAKDDAAGQAIANRFTANIKGLTQASRNANDGISIAQTTEGALNEINNNLQRVRELAVQSANSTNSQSDLDSIQAEITQRLNEIDRVSGQTQFNGVKVLAQDNTLTIQVGANDGETIDIDLKQINSQTLGLDSLNVHGAPVDPASPWTENPLQKIDAALAQVDALRSDLGAVQNRFNSAITNLGNTVNNLSEARSRIEDSDYATEVSNMSRAQILQQAGTSVLAQANQVPQNVLSLLR
chain 2: MGHHHHHHASEYLNKIQNSLSTEWSPSSVTGSWQTWNARWDQWSNDWNAWRSDWQAWRDDWARWRALWMGGRLLLRLEELERRLEELERRLEELERFVAAWTLRVRALERRLEELERRIEEIARGSGDPNANPNVDPNANPNVNANPNANPNANP
B3: PD52-2i88-PANDORA-D2-D1-ori : PD52-2i88-PANDORA-Noro co-assembled nanoparticle (5:55) (other)
chain 1: MGHHHHHHASGSWEKWNAKWDEWKNDWNDWRRDWQAWVDDWAYWTLTWKYGELYSKLAELERRNEELERRLEELARFVAALSMRLAELERRNEELARGSGSSARLSDLEANNAVRGESKITVNGAEYTANATGDRITLAGRTMFIDRTASGVSTLINEDAAAARRSTANPLASIDSALSRVDAVRSSLGAIQNRFDSAIGSKNANDGISIAQTTEGALNEINNNLQRVRELSVQATNGTNSDSDLRSIQDEIQQRLEEIDRVSNQTQFNGVKVLSQDNQMKIQVGAKDGETITIDLQKIDVKSLGLDGFNVNGPREATVGDLRSSFRNVTGYDTYAAGADRYRVDINSGAV
chain 2: MGHHHHHHASGSWEKWNAKWDEWKNDWNDWRRDWQAWVDDWAYWTLTWKYGELYSKLAELERRNEELERRLEELARFVAALSMRLAELERRNEELARGSGSTVEQKTRPFTLPNLPLSSLSNSRAPLPISSMGISPDNVQSVQFQNGRCTLDGRLVGTTPVSLSHVAKIRGTSNGTVINLTELDGTPFHPFEGPAPIGFPDLGGCDWHINMTQFGHSSQTQYDVDTTPDTFVPHLGSIQANGIGSGNYVGVLSWISPPSHPSGSQVDLWKIPNYGSSITEATHLAPSVYPPGFGEVLVFFMSKMPGPGAYNLPCLLPQEYISHLASEQAPTVGEAALLHYVDPDTGRNLGEFKAYPDGFLTCVPNGASSGPQQLPINGVFVFVSWVSRFYQLKPVGTAS

How the values were obtained:
[1] = target: Toll-like receptor 5 (TLR5) on TLR5/SEAPorter HEK 293 cells (IMGENEX, Cat. No. IML-105) (UniProt O60602); experiment: cell-based or functional assay
Sequence of Toll-like receptor 5 (TLR5) on TLR5/SEAPorter HEK 293 cells (IMGENEX, Cat. No. IML-105) (UniProt O60602) (O60602 21-858 limits assumed): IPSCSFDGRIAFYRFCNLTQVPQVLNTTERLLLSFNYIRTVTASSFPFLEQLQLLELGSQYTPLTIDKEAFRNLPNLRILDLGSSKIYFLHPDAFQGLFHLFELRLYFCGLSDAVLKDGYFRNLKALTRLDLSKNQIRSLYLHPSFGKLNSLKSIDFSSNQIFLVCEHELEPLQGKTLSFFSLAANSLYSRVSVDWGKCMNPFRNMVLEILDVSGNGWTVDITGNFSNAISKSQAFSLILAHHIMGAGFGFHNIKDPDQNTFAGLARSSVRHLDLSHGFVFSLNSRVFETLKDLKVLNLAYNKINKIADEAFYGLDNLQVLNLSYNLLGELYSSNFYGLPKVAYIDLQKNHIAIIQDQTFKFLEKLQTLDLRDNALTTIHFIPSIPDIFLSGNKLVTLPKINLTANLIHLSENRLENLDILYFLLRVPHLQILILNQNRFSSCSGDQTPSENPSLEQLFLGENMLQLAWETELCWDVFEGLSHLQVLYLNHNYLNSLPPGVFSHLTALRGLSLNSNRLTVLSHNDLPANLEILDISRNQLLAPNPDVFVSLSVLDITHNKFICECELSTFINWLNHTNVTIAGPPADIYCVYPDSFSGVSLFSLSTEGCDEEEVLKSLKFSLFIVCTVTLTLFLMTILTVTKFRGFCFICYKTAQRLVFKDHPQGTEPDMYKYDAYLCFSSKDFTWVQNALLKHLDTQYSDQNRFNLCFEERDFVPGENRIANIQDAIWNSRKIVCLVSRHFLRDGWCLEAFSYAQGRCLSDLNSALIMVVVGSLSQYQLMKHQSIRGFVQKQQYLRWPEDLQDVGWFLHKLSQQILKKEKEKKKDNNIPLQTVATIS

[2] = target: Toll-like receptor 5 (TLR5) on TLR5/SEAPorter HEK 293 cells (IMGENEX, Cat. No. IML-105) (UniProt O60602 21-858); experiment: cell-based or functional assay
Sequence of Toll-like receptor 5 (TLR5) on TLR5/SEAPorter HEK 293 cells (IMGENEX, Cat. No. IML-105) (UniProt O60602 21-858) (O60602 21-858 limits assumed): as above

Row | Molecule | EC50 of TLR5 agonist activity (SEAP reporter, TLR5/SEAPorter HEK 293 cells) [1] | EC50 of TLR5 agonist activity (SEAP reporter, TLR5/SEAPorter HEK 293 cells) [2] | TLR5 activation relative to native flagellin [2]
1 | flagellin from Salmonella typhimurium (IMGENEX flagellin, Cat. No. IMG-2205) (from UniProt P06179 2-495) (ligand) | 0.29 ng/mL | – | –
2 | B1 | – | 12.6 ng/mL | –
3 | B2 | – | 0.0901 ng/mL | ~3 fold
4 | B3 | – | 17.7 ng/mL | –
